The numbers were not newly measured in publication PMC5691641, which cites them from elsewhere.

By Kd is commonly meant the constant that tells how readily two partners part at equilibrium.

This data set has as its target Bax (Homo sapiens) (UniProt Q07812).

Sequence of Bax (Homo sapiens) (Q07812 whole entry): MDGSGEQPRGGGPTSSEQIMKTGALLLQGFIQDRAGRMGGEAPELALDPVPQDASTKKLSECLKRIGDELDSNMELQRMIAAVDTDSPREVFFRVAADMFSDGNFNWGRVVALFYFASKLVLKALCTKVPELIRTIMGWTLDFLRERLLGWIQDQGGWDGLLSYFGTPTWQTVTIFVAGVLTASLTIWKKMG
Sequence of vMIA (P16778 23-487): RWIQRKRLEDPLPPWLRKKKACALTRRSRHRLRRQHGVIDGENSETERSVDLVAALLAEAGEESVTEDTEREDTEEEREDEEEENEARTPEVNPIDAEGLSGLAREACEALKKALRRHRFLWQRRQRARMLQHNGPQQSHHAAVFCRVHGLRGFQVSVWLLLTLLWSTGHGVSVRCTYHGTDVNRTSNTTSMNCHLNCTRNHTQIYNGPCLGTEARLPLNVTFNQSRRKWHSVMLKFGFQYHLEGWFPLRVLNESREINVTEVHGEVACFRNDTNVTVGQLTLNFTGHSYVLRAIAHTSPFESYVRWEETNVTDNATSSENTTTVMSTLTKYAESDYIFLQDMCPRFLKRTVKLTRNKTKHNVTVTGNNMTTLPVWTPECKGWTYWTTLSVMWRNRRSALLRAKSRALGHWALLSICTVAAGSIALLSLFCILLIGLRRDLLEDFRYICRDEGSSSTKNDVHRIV

On to vMIA (from UniProt P16778), for which the Kd was 22 nM.
